Data taken from patent US20260242735A1 (UNIVERSIT T BASEL, published 2026).

Tests used:
Assay in all cases: flow cytometry, alanine scan
human CD33 G318A = human CD33 G318A (human, UniProt P20138 18-364)
human CD33 P319A = human CD33 P319A (human, UniProt P20138 18-364)
human CD33 T320A = human CD33 T320A (human, UniProt P20138 18-364)
human CD33 E321A = human CD33 E321A (human, UniProt P20138 18-364)
human CD33 T322A = human CD33 T322A (human, UniProt P20138 18-364)
human CD33 S323A = human CD33 S323A (human, UniProt P20138 18-364)
Sequence of human CD33 S323A (P20138 18-364 S323A limits assumed): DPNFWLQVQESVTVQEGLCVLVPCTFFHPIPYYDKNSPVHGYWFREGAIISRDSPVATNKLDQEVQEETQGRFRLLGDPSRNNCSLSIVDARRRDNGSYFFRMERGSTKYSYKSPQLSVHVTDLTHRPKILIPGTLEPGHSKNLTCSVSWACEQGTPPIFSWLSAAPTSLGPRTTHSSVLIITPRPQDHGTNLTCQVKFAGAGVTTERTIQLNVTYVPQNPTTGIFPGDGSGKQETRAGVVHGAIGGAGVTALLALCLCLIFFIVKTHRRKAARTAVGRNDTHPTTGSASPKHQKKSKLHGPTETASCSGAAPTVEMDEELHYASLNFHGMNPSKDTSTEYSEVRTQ

human CD33 S324A = human CD33 S324A (human, UniProt P20138 18-364)
human CD33 C325A = human CD33 C325A (human, UniProt P20138 18-364)
human CD33 S326A = human CD33 S326A (human, UniProt P20138 18-364)
Sequence of human CD33 S326A (P20138 18-364 S326A limits assumed): as the sequence (P20138 18-364 S323A limits assumed) above, with A306S, S309A counted along it

human CD33 G327A = human CD33 G327A (human, UniProt P20138 18-364)
Sequence of human CD33 G327A (P20138 18-364 G327A limits assumed): as the sequence (P20138 18-364 S323A limits assumed) above, with A306S, G310A counted along it

human CD33 A328S = human CD33 A328S (human, UniProt P20138 18-364)
human CD33 A329S = human CD33 A329S (human, UniProt P20138 18-364)
human CD33 P330A = human CD33 P330A (human, UniProt P20138 18-364)
human CD33 T331A = human CD33 T331A (human, UniProt P20138 18-364)
human CD33 V332A = human CD33 V332A (human, UniProt P20138 18-364)
human CD33 E333A = human CD33 E333A (human, UniProt P20138 18-364)
human CD33 M334A = human CD33 M334A (human, UniProt P20138 18-364)
human CD33 D335A = human CD33 D335A (human, UniProt P20138 18-364)
human CD33 E336A = human CD33 E336A (human, UniProt P20138 18-364)
human CD33 E337A = human CD33 E337A (human, UniProt P20138 18-364)
human CD33 L338A = human CD33 L338A (human, UniProt P20138 18-364)
Sequence of human CD33 L338A (P20138 18-364 L338A limits assumed): as the sequence (P20138 18-364 S323A limits assumed) above, with A306S, L321A counted along it

human CD33 H339A = human CD33 H339A (human, UniProt P20138 18-364)
human CD33 Y340A = human CD33 Y340A (human, UniProt P20138 18-364)
Sequence of human CD33 Y340A (P20138 18-364 Y340A limits assumed): as the sequence (P20138 18-364 S323A limits assumed) above, with A306S, Y323A counted along it

human CD33 A341S = human CD33 A341S (human, UniProt P20138 18-364)
human CD33 S342A = human CD33 S342A (human, UniProt P20138 18-364)
Sequence of human CD33 S342A (P20138 18-364 S342A limits assumed): as the sequence (P20138 18-364 S323A limits assumed) above, with A306S, S325A counted along it

human CD33 L343A = human CD33 L343A (human, UniProt P20138 18-364)
human CD33 N344A = human CD33 N344A (human, UniProt P20138 18-364)
human CD33 F345A = human CD33 F345A (human, UniProt P20138 18-364)
human CD33 H346A = human CD33 H346A (human, UniProt P20138 18-364)
human CD33 G347A = human CD33 G347A (human, UniProt P20138 18-364)
Sequence of human CD33 G347A (P20138 18-364 G347A limits assumed): as the sequence (P20138 18-364 S323A limits assumed) above, with A306S, G330A counted along it

human CD33 M348A = human CD33 M348A (human, UniProt P20138 18-364)
Sequence of human CD33 M348A (P20138 18-364 M348A limits assumed): as the sequence (P20138 18-364 S323A limits assumed) above, with A306S, M331A counted along it

human CD33 N349A = human CD33 N349A (human, UniProt P20138 18-364)
human CD33 P350A = human CD33 P350A (human, UniProt P20138 18-364)
human CD33 S351A = human CD33 S351A (human, UniProt P20138 18-364)
human CD33 K352A = human CD33 K352A (human, UniProt P20138 18-364)
Sequence of human CD33 K352A (P20138 18-364 K352A limits assumed): as the sequence (P20138 18-364 S323A limits assumed) above, with A306S, K335A counted along it

human CD33 D353A = human CD33 D353A (human, UniProt P20138 18-364)
Sequence of human CD33 D353A (P20138 18-364 D353A limits assumed): as the sequence (P20138 18-364 S323A limits assumed) above, with A306S, D336A counted along it

human CD33 T354A = human CD33 T354A (human, UniProt P20138 18-364)
Sequence of human CD33 T354A (P20138 18-364 T354A limits assumed): as the sequence (P20138 18-364 S323A limits assumed) above, with A306S, T337A counted along it

human CD33 S355A = human CD33 S355A (human, UniProt P20138 18-364)
human CD33 T356A = human CD33 T356A (human, UniProt P20138 18-364)
human CD33 E357A = human CD33 E357A (human, UniProt P20138 18-364)
human CD33 Y358A = human CD33 Y358A (human, UniProt P20138 18-364)
human CD33 S359A = human CD33 S359A (human, UniProt P20138 18-364)
human CD33 E360A = human CD33 E360A (human, UniProt P20138 18-364)
human CD33 V361A = human CD33 V361A (human, UniProt P20138 18-364)
human CD33 R362A = human CD33 R362A (human, UniProt P20138 18-364)
Sequence of human CD33 R362A (P20138 18-364 R362A limits assumed): as the sequence (P20138 18-364 S323A limits assumed) above, with A306S, R345A counted along it

human CD33 T363A = human CD33 T363A (human, UniProt P20138 18-364)
human CD33 Q364A = human CD33 Q364A (human, UniProt P20138 18-363)
Sequence of human CD33 Q364A (P20138 18-364 Q364A limits assumed): as the sequence (P20138 18-364 S323A limits assumed) above, with A306S, Q347A counted along it

Sequence of human CD33 T320A (P20138 18-364 T320A limits assumed): as the sequence (P20138 18-364 S323A limits assumed) above, with T303A, A306S counted along it

B1: Refmab #2 (antibody, V domains shown)
VH: QVQLVQSGAEVKKPGSSVKVSCKASGGTFSDYAISWVRQAPGQGLEWMGRIIPILGVADYAQKFQGRVTITADKSTRTAYMELSSLRSEDTAVYYCARNWADAFDIWGQGTMVTVSS
VL: DIQLTQSPSSLSASVGDRVTITCRASQGISSVLAWYQQKPGKAPKLLIYDASSLESGVPSRFSGSGSGTDFTLTISSLQPEDFATYYCQQFDSSITFGQGTKLEIK
notes: The alanine scan used IgG or Fab
Human CD33 G318A
  Mean % WT Binding: 106 % of WT
Human CD33 P319A
  Mean % WT Binding: 100 % of WT
Human CD33 T320A
  Mean % WT Binding: 112 % of WT
Human CD33 E321A
  Mean % WT Binding: 117 % of WT
Human CD33 T322A
  Mean % WT Binding: 111 % of WT
Human CD33 S323A
  Mean % WT Binding: 119 % of WT
Human CD33 S324A
  Mean % WT Binding: 106 % of WT
Human CD33 C325A
  Mean % WT Binding: 109 % of WT
Human CD33 S326A
  Mean % WT Binding: 109 % of WT
Human CD33 G327A
  Mean % WT Binding: 122 % of WT
Human CD33 A328S
  Mean % WT Binding: 102 % of WT
Human CD33 A329S
  Mean % WT Binding: 116 % of WT
Human CD33 P330A
  Mean % WT Binding: 119 % of WT
Human CD33 T331A
  Mean % WT Binding: 91.3 % of WT
Human CD33 V332A
  Mean % WT Binding: 91.6 % of WT
Human CD33 E333A
  Mean % WT Binding: 108 % of WT
Human CD33 M334A
  Mean % WT Binding: 106 % of WT
Human CD33 D335A
  Mean % WT Binding: 117 % of WT
Human CD33 E336A
  Mean % WT Binding: 117 % of WT
Human CD33 E337A
  Mean % WT Binding: 116 % of WT
Human CD33 L338A
  Mean % WT Binding: 107 % of WT
Human CD33 H339A
  Mean % WT Binding: 99.5 % of WT
Human CD33 Y340A
  Mean % WT Binding: 106 % of WT
Human CD33 A341S
  Mean % WT Binding: 116 % of WT
Human CD33 S342A
  Mean % WT Binding: 117 % of WT
Human CD33 L343A
  Mean % WT Binding: 111 % of WT
Human CD33 N344A
  Mean % WT Binding: 88.1 % of WT
Human CD33 F345A
  Mean % WT Binding: 102 % of WT
Human CD33 H346A
  Mean % WT Binding: 118 % of WT
Human CD33 G347A
  Mean % WT Binding: 85.9 % of WT
Human CD33 M348A
  Mean % WT Binding: 115 % of WT
Human CD33 N349A
  Mean % WT Binding: 110 % of WT
Human CD33 P350A
  Mean % WT Binding: 117 % of WT
Human CD33 S351A
  Mean % WT Binding: 109 % of WT
Human CD33 K352A
  Mean % WT Binding: 113 % of WT
Human CD33 D353A
  Mean % WT Binding: 94.4 % of WT
Human CD33 T354A
  Mean % WT Binding: 111 % of WT
Human CD33 S355A
  Mean % WT Binding: 105 % of WT
Human CD33 T356A
  Mean % WT Binding: 111 % of WT
Human CD33 E357A
  Mean % WT Binding: 104 % of WT
Human CD33 Y358A
  Mean % WT Binding: 110 % of WT
Human CD33 S359A
  Mean % WT Binding: 102 % of WT
Human CD33 E360A
  Mean % WT Binding: 101 % of WT
Human CD33 V361A
  Mean % WT Binding: 99.4 % of WT
Human CD33 R362A
  Mean % WT Binding: 119 % of WT
Human CD33 T363A
  Mean % WT Binding: 108 % of WT
Human CD33 Q364A
  Mean % WT Binding: 109 % of WT

B2: Refmab #1 (antibody, V domains shown)
VH: EVQLVQSGAEVKKPGSSVKVSCKASGYTITDSNIHWVRQAPGQSLEWIGYIYPYNGGTDYNQKFKNRATLTVDNPTNTAYMELSSLRSEDTAFYYCVNGNPWLAYWGQGTLVTVSS
VL: DIQLTQSPSTLSASVGDRVTITCRASESLDNYGIRFLTWFQQKPGKAPKLLMYAASNQGSGVPSRFSGSGSGTEFTLTISSLQPDDFATYYCQQTKEVPWSFGQGTKVEVK
notes: The alanine scan used IgG or Fab; also called hP67.6
Human CD33 G318A
  Mean % WT Binding: 98.5 % of WT
Human CD33 P319A
  Mean % WT Binding: 83.9 % of WT
Human CD33 T320A
  Mean % WT Binding: 98.5 % of WT
Human CD33 E321A
  Mean % WT Binding: 88.3 % of WT
Human CD33 T322A
  Mean % WT Binding: 104 % of WT
Human CD33 S323A
  Mean % WT Binding: 95.2 % of WT
Human CD33 S324A
  Mean % WT Binding: 97.8 % of WT
Human CD33 C325A
  Mean % WT Binding: 80.1 % of WT
Human CD33 S326A
  Mean % WT Binding: 85.6 % of WT
Human CD33 G327A
  Mean % WT Binding: 88 % of WT
Human CD33 A328S
  Mean % WT Binding: 86.5 % of WT
Human CD33 A329S
  Mean % WT Binding: 88.1 % of WT
Human CD33 P330A
  Mean % WT Binding: 98.6 % of WT
Human CD33 T331A
  Mean % WT Binding: 87.4 % of WT
Human CD33 V332A
  Mean % WT Binding: 107 % of WT
Human CD33 E333A
  Mean % WT Binding: 77.9 % of WT
Human CD33 M334A
  Mean % WT Binding: 94.6 % of WT
Human CD33 D335A
  Mean % WT Binding: 77.8 % of WT
Human CD33 E336A
  Mean % WT Binding: 82.8 % of WT
Human CD33 E337A
  Mean % WT Binding: 91.1 % of WT
Human CD33 L338A
  Mean % WT Binding: 83.1 % of WT
Human CD33 H339A
  Mean % WT Binding: 76.7 % of WT
Human CD33 Y340A
  Mean % WT Binding: 91.1 % of WT
Human CD33 A341S
  Mean % WT Binding: 86.8 % of WT
Human CD33 S342A
  Mean % WT Binding: 79.5 % of WT
Human CD33 L343A
  Mean % WT Binding: 88.5 % of WT
Human CD33 N344A
  Mean % WT Binding: 72.1 % of WT
Human CD33 F345A
  Mean % WT Binding: 97.8 % of WT
Human CD33 H346A
  Mean % WT Binding: 81.8 % of WT
Human CD33 G347A
  Mean % WT Binding: 85.1 % of WT
Human CD33 M348A
  Mean % WT Binding: 83.3 % of WT
Human CD33 N349A
  Mean % WT Binding: 92.3 % of WT
Human CD33 P350A
  Mean % WT Binding: 99 % of WT
Human CD33 S351A
  Mean % WT Binding: 102 % of WT
Human CD33 K352A
  Mean % WT Binding: 95.3 % of WT
Human CD33 D353A
  Mean % WT Binding: 94.7 % of WT
Human CD33 T354A
  Mean % WT Binding: 91.8 % of WT
Human CD33 S355A
  Mean % WT Binding: 86.1 % of WT
Human CD33 T356A
  Mean % WT Binding: 93.5 % of WT
Human CD33 E357A
  Mean % WT Binding: 98.7 % of WT
Human CD33 Y358A
  Mean % WT Binding: 76.1 % of WT
Human CD33 S359A
  Mean % WT Binding: 95.8 % of WT
Human CD33 E360A
  Mean % WT Binding: 73.7 % of WT
Human CD33 V361A
  Mean % WT Binding: 88.8 % of WT
Human CD33 R362A
  Mean % WT Binding: 104 % of WT
Human CD33 T363A
  Mean % WT Binding: 91.4 % of WT
Human CD33 Q364A
  Mean % WT Binding: 72 % of WT
